{
  "source": "paper PMC2904371",
  "origin": "cited, not measured here",
  "target": "Vinculin tail Vd5 (UniProt P18206)",
  "note": "pKd: −log10 of the molar value.",
  "data": [
    {"substance": "Vinculin head Vd1-Vd4 (from UniProt P18206)", "values": [
      {"measurement": "pKd", "value": 9.00}
    ]}
  ]
}
